Data reported in patent US20070111944A1 (published 2007).

How the values were obtained:
[1] = biological target: chimeric receptor consisting of the extracellular and transmembrane domain of VEGFR1 fused to the cytoplasmic domain of gp130 (UniProt P17948); experiment: cell-based or functional assay
VEGF-R2/Fc = biological target: T1, VEGF-R2/Fc (human, UniProt P35968 20-764); experiment: SPR (Biacore 2000), VEGF-B167 immobilised, receptor-Fc injected
T1 construct: Bought from R&D Systems; also called VEGF receptor 2; not shown: human immunoglobulin Fc domain
T1 sequence (P35968 20-764 limits assumed): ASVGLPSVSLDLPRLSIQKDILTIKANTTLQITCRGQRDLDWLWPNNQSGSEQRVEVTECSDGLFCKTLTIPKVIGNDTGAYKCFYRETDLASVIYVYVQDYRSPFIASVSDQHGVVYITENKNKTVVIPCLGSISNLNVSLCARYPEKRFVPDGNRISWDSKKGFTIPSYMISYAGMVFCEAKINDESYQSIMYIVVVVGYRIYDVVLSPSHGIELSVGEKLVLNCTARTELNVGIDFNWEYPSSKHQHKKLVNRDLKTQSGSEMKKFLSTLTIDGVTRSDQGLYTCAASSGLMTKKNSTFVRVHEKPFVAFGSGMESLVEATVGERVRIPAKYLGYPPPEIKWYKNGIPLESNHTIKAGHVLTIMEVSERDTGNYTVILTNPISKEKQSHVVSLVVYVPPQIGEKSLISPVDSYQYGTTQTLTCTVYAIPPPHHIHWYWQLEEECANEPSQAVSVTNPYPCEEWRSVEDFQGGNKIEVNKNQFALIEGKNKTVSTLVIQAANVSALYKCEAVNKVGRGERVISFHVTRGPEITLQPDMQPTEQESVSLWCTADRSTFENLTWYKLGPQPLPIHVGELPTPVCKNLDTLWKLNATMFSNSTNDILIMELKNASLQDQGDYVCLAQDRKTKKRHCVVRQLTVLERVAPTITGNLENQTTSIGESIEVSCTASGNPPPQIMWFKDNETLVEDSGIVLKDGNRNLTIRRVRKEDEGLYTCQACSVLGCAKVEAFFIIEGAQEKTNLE
Protocol: For control purposes binding of the receptors to VEGF-A₁₆₅ was also monitored. Both VEGF-B₁₆₇ and VEGF-A₁₆₅ were individually immobilised to a sensorchip using NHS/EDC chemistry according to the manufacturer's instructions. Briefly, 35 μl of NHS and EDC was injected onto the sensorchip at a flow rate of 5 μl/min to activate the sensor surface and enable covalent coupling of either VEGF-A₁₆₅ or VEGF-B₁₆₇. […] Post coupling, diaminoethane (50 mM, pH 9.0) was used to block any unbound activated sites on the sensor surface. Concentrated dimeric VEGF-B₁₆₇ (200 μg/ml) was diluted (1:10) in 20 mM sodium acetate and immobilized onto a separate channel on the sensorchip. Post coupling, diaminoethane (50 mM, pH 9.0) was used to block any unbound activated sites on the sensor surface.
At the end of each run, the surface of the sensorchip was regenerated using 2 cycles of phosphoric acid (0.1 M, 30 μl) at a flow of 50 μl/min. […] Both were diluted into 0.1% w/v BSA in PBS as a stock solution (50 μg/ml, storage −20° C.).

VEGF-R1/Fc = biological target: T2, VEGF-R1/Fc (human, UniProt P17948-2 27-758, limits assumed); experiment: competition ELISA on captured VEGF-R1/Fc; competitor VEGF-A165 at 10 ng/ml, detected with biotinylated anti-VEGF-A165; VEGF-A165 at 10 ng/ml; VEGF-R1/Fc captured on plate
T2 construct: Bought from R&D Systems; also called VEGF receptor 1; Flt-1; not shown: human immunoglobulin Fc domain
T2 sequence (P17948 27-758 limits assumed, form in doubt): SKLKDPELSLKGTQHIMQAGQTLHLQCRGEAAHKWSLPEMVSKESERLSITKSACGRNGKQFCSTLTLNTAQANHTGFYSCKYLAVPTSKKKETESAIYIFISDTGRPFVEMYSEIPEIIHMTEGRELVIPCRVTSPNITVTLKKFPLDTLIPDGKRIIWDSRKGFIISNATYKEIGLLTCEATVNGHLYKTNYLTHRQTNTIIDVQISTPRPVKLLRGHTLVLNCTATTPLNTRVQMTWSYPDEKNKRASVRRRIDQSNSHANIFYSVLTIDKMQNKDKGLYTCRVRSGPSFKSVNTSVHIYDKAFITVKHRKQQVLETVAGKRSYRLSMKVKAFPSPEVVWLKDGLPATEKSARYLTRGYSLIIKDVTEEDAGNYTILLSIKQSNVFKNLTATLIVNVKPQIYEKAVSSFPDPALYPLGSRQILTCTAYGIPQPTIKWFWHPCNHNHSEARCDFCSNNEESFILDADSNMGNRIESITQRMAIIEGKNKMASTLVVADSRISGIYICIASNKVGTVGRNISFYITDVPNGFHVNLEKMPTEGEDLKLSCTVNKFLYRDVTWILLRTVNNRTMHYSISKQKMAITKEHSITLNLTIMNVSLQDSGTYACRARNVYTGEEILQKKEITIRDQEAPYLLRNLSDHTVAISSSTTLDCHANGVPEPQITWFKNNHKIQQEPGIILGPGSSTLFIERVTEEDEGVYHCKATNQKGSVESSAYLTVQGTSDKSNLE
Protocol: 1. […] 2. […] 6. […] 7. Biotinylated anti-VEGF-A₁₆₅ (10 ng/ml in Buffer 20, 100 μl) was added and incubated for 1 hr. […] 8. […] 9. […] 10. […] 11.

Sequence of chimeric receptor consisting of the extracellular and transmembrane domain of VEGFR1 fused to the cytoplasmic domain of gp130 (P17948 other isoform, or with tags, fused parts or gaps mutant limits assumed): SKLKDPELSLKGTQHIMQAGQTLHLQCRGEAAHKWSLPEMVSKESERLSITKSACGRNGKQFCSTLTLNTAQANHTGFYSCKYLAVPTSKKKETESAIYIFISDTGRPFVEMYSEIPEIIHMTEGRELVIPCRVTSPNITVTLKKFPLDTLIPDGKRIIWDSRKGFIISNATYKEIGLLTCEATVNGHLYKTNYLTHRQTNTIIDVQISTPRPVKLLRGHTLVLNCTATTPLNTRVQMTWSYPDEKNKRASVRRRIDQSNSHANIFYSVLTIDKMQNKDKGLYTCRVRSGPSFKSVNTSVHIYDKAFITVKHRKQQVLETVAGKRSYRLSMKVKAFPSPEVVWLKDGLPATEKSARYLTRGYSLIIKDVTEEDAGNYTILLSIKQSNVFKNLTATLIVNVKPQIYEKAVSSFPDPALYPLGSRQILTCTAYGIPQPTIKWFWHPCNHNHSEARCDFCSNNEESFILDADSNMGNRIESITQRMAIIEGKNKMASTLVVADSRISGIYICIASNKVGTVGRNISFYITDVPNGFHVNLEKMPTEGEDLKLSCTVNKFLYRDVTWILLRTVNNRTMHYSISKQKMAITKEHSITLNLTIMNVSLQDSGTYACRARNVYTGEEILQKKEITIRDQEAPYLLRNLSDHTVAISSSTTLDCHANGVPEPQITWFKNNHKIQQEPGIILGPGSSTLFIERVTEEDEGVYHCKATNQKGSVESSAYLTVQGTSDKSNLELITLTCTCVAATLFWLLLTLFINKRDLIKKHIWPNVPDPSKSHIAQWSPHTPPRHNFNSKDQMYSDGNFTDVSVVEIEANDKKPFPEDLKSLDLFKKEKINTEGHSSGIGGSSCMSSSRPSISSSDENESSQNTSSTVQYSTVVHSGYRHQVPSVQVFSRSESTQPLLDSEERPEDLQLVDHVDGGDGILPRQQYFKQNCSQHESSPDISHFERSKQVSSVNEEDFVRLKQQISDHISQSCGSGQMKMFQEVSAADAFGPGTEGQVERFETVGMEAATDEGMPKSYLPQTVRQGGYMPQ

luciferase reporter activity (ED50) [1] [µg/mL] | IC50 (VEGF-R1/Fc) [µg/mL] | Molecule | binding result (VEGF-R2/Fc)
0.01 to 0.05 | – | VEGF-A (from UniProt P15692 27-191) (ligand) | –
– | ~0.02 | refolded dimeric VEGF-B167 (ligand, also called purified dimeric VEGF-B167) APVSQPDAPGHQRKVVSWIDVYTRATCQPREVVVPLTVELMGTVAKQLVPSCVTVQRCGGCCPDDGLECVPTGQHQVRMQILMIRYPSSQLGEMSLEEHSQCECRPKKKDSAVKPDSPRPLCPRCTQHHQRPDPRTCRCRCRRRSFLRCQGRGLELNPDTCRCRKLRR | no binding (tested: 50 µg/ml stock diluted 1:10)
